Reference: US20100234283A1

T1: KDR-Fc (R&D System), P35968
T1 chain: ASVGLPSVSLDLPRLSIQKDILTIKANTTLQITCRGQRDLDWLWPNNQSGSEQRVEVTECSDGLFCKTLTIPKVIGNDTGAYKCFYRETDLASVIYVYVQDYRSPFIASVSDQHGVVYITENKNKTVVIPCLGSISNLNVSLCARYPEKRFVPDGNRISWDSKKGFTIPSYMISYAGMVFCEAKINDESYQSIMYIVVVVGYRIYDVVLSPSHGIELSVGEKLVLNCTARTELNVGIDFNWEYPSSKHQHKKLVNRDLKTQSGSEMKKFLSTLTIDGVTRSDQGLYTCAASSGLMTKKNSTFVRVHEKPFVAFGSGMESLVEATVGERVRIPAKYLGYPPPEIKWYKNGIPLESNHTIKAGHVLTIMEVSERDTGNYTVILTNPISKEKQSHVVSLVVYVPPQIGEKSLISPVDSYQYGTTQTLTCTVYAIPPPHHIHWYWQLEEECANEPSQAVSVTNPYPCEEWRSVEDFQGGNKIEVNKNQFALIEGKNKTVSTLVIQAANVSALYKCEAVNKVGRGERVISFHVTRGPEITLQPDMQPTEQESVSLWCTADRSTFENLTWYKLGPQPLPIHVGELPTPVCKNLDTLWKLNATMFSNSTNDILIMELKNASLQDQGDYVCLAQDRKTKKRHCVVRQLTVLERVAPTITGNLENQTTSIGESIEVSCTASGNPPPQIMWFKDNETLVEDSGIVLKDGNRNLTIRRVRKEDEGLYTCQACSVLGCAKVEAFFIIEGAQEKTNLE


Key:
[1] = biological target: VEGFR-2 on HUVEC and 293/KDR cells (human), P35968; assay: cell-based or functional assay
[2] = biological target: T1, KDR-Fc (R&D System), P35968; assay: SPR (BIAcore 3000), peptide on CM5 chip, KDR-Fc injected, 1:1 Langmuir fit

Row | inhibition of HUVEC migration (scratch wound assay, 50 ng/ml rhVEGF) [1] [%] | Kd [2] [nM] | Binder
1 | 50 | 11 | ITMQCGIHQGQHPKIMICEMSF (modifications not checked) [VEGF-P3(CYC)]
2 | 50 | 45 | ITMQIMRIKPHQGQHIGEMSF (modifications not checked) [VEGF 102-122]
3 | 50 | 49 | ITMQCGIHQGQHPKIMICEMSF (modifications not checked) [VEGF-P3(NC)]
